Series [1] has as its target T1, MCT1 transport of lactate (Homo sapiens, UniProt P53985).
T1 construct: endogenous in cells
T1 sequence (P53985 1-500): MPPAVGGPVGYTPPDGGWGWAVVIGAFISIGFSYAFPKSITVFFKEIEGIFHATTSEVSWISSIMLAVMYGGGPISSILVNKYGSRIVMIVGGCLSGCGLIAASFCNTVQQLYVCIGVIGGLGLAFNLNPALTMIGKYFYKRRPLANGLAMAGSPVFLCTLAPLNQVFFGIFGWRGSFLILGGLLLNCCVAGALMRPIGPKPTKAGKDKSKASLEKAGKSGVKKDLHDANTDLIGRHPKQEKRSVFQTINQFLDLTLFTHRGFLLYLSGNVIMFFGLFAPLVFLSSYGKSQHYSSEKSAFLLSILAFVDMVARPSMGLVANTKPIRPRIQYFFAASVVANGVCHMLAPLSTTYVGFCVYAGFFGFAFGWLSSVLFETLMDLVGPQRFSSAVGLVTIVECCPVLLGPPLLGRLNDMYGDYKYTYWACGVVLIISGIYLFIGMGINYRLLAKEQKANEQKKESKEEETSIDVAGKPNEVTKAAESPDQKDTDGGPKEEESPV
Briefly: lactate FLIPR assay. It is filed as cell-based. The following applies: activated T cells; FLIPR Tetra, BCECF; read-out: Kd for block of lactate transport. An excerpt:
Effects on lactate transport.
Inhibition of lactate transport.

Series [2] deals with xeno-GVHD. Briefly: xeno-GvHD model with anti-MCT1 antibodies (human PBMC into NSG mice). It is filed as in vivo, mouse. The method, then: In this model of GvHD animals male NSG mice are treated with sub-lethal irradiation (250 rad), and afterward these mice receive 2.5×10^6 of fresh human PBMC (day 0). First dose of anti-human MCT1 is combined with cells and injected i.v. The follow up treatment schedule is weekly (day 7, 14 and 21, IP).
For re-challenge experiments previously treated with anti-MCT1 (days 0, 7, 14, 21) NSG mice receive a second dose of 2.5×10^6 of previously frozen human PBMC of the same donor (day 42). Survival and weight loss of these mice is monitored with no additional antibody treatments and compared to a new cohort of NSG mice receiving same donor PBMCs.
100 ul of total blood is used for analysis: blood was stained using a Stain-1 wash protocol to allow absolute cell count with Ab panel below followed by FACS lysis buffer 1× (BD Bioscience, #349202); whole blood was incubated with a 10× antibody (shown below) and after 30 min, the blood was lysed in a large volume of 1× lysis buffer (at least 6 times) following manufacturer instructions; or blood was first lysed with ACK (10 min), washed in PBS and stained with antibody mix, exactly as described in the table below.

Series [3] deals with T2, MCT1 on T cells (Homo sapiens, UniProt P53985).
T2 construct: endogenous in cells
T2 sequence (P53985 1-500): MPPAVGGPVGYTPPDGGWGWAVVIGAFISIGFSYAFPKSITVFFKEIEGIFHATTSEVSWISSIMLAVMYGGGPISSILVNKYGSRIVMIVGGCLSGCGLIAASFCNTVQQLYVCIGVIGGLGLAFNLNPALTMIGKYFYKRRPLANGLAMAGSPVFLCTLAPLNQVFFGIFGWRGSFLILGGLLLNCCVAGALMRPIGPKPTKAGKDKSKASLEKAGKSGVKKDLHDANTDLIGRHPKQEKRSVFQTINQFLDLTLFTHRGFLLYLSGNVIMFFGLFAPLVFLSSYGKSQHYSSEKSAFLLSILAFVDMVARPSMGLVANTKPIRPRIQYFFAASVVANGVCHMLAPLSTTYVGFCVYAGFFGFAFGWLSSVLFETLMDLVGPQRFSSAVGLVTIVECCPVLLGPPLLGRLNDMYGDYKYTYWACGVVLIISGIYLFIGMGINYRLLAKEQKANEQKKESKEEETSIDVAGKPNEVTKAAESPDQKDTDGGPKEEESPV
Briefly: staining of naive and activated T cells. The format is binding. From the text:
The only staining in FIG. 13A corresponds to nucleus staining, confirming the presence of the naïve T cells.
MCT1 Ab1 binding to activated T cells. […] This binding confirms the expression data presented in FIG. 2 and confirms the prediction based on mRNA analysis.

Series [4] deals with T3, MCT1 (Homo sapiens, UniProt P53985).
T3 construct: HEK-293 WT cells only express MCT1/CD147 and no other MCTs as measured by RT-PCR; endogenous in cells; host or cells: HEK293T
T3 sequence (P53985 1-500): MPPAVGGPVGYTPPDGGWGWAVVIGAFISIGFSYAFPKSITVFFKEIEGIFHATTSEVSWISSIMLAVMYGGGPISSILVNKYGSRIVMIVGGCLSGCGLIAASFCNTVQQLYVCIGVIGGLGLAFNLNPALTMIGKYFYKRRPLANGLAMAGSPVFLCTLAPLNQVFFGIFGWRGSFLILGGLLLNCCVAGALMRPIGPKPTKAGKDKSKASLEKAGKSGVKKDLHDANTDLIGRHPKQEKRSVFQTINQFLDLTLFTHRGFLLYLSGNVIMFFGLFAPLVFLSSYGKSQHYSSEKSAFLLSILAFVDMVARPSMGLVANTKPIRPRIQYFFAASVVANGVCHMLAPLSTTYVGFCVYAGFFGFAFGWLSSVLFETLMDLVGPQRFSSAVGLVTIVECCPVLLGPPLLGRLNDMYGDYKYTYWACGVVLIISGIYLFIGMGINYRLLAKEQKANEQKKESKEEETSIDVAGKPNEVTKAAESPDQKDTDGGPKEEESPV
In words: bromopyruvate toxicity assay (ATPlite). It is filed as cell-based. The following applies: bromopyruvate 150 μM; ATPlite; read-out: Kd for inhibition of bromopyruvate toxicity (protection from cell death). How it is done: Inhibition of bromopyruvate toxicity. Since MCT1 is the sole transporter necessary for the in vitro efficacy of the anti-cancer toxin bromopyruvate (Reference 66), a second cell-based functional assay was developed to measure the in vitro killing of cells using this toxin at a concentration of 150 μM.
HEK293T cells are pre-treated with anti-MCT1 antibody or small molecular MCT1 inhibitor at 37° C. for 1 hour. Cells are then incubated with a cytotoxic reagent 3-bromopyruvate (3-BrPy) at concentrations that rand from 25 to 500 μM for 2 to 6 hours. ATP from dying cells will be quantified using a commercial viability kit (ATPlite, PerkinElmer) in a 96-well plate and viability measured using luminescence. Reduction of ATP production indicates functionality of the antibody. A positive control antibody is the mouse or chimeric antibody before humanization. A negative control cell line is MCT1/CD147 double knockout 293T cells. Using this assay functional, i.e., antagonistic anti-MCT1 antibodies may be identified.
In general terms: ATP-based viability assays read luminescence as a measure of living cells.

For series [5], the system named is T cell proliferation. In words: T cell proliferation assay (CD3/CD28 stimulated). The following applies: CD3/CD28 stimulated cultures; read-out: EC50 inhibition of T cell proliferation. The format is cell-based, human. How it is done:
MCT1, MCT2, MCT4, and BSG (CD147) expression were measured in unstimulated and stimulated leukocytes from two different donors. For the “stimulated” condition, cells were CD3/CD28 activated for 3 days. Stimulated cells were tested for inhibition of proliferation by AZ3965.
Human T cell proliferation.
(§1) Inhibition of T cell proliferation, inflammatory cytokine production, and allogeneic activation. […] An anti-MCT1 antibody or antibody fragment of the invention may also be tested for its ability to inhibit the production of inflammatory cytokines, relative to controls, in stimulated T cells on day 3 post-stimulation. MCT1 Ab1As with CD3/CD28 activation, MCT1 Ab1 inhibited allogeneic activation by 50-60% in a human mixed lymphocyte reaction (see, e.g., FIG. 17).

For series [6], the system named is allogeneic activation / T cell proliferation. In words: human mixed lymphocyte reaction (MLR). It is filed as cell-based.
Description: Human mixed lymphocyte reaction (MLR).
as §1

Series [7] can be described thus: repeated dosing safety in cynomolgus monkeys. The format is in vivo, cynomolgus monkey. An excerpt:
In order to further corroborate the safety and efficacy of anti-MCT1 antibodies for human therapy we administered dosages of 50 mpk of anti-human MCT1 antibodies to cynomolgus monkeys. As disclosed in this example and corroborated by the figure referenced herein no toxicity was observed after 30 days.
As shown in FIG. 23 cynomolgus red blood cells (RBCs) express high levels of MCT1. Based thereon we tested the effects of antagonistic anti-MCT1 antibodies in cyno monkeys and in particular looked at any effects on RBCs after anti-MCT1 antibody dosing. Also, we determined whether cynos could tolerate a therapeutic effective dosage of the antibody.

Series [8] concerns human RBC lactate transport. In words: FLIPR lactate transport in purified human RBCs. It is filed as cell-based. The note with it: 10 mM lactate. The method, then:
MCT1 Ab1 and AZ3965 were used to inhibit MCT1 lactate transport in purified human RBCs using FLIPR based transport assays (REF. 1, 2) in the presence of 10 mM lactate. The levels of lactate transport were compared to a no lactate control condition and a no inhibitor condition in the presence of lactate.

Series [9] deals with CD4+ and CD8+ T cells. In words: proliferation of CD4+ and CD8+ T cells. It is filed as cell-based. The following applies: different antibody concentrations.
Series [10] concerns human T cells. In words: metabolomics of treated T cells. It is filed as cell-based. The note with it: preliminary.

The source of these data is patent US12649783B2, “Anti-MCT1 antibodies and uses thereof” (IMMUNEXT INC., priority 2018, dated 2026).

The term Kd denotes the equilibrium constant for the complex coming apart.

B1: MCT1 Ab1: rat anti-human MCT1 monoclonal antibody (rat/human chimera); VH/VL SEQ ID NO: 2/3 (antibody, V domains shown)
VH: QVQLKATGPGLVQPTQTLSITCTVSGFSLTNYHLQWVRQTPGKGLEWMGFIRSSGNTEYNSEFKSRLSISRDTSKNQVFLKMNSLKTDDTGVYYCARNSWYHGTYYSPGYYVMDAWGQGASVTVSS
VL: NIHLTQSPSLLSASVGDRVTLSCKGSQNINNYLAWFQQKFGETPKLLIYNRHNLQTGIPSRFSGSGSGTDYTLTINSLQPEDVATYFCYQYSDGYTFGAGTKLELK
modifications: MCT1 Ab1 (INX310) VH; MCT1 Ab1 (INX310) VL
Consider B1, for which the Kd in [1] was 7.6 nM. Also, the “number of CD3+, CD4+ and CD8+ effector T cells” value in series [2] (compared to NSG mice treated with control antibody) was “significant decrease in the number of CD3^+, CD4^+ and CD8^+ effector T cells”. In series [2] (compared to control antibody), the Tr1 cells entry was “increases in Tr1 cells”. Besides, the “MABEL in xeno-GVHD” value in [2] (mouse, in vivo) is approximately 1 mpk. The “survival, long-term protection and tolerance” value in [2] (re-challenge at day 42 with PBMC of the same donor) was “increased survival, long-term protection and tolerance induction”. Also, the “staining of activated T cells” value in [3] (CD3/CD28 activated cells, day 3) was “stains the surface of CD3/CD28 activated cells on day 3”. Further, the “staining of naive T cells” value in [3] (naïve cells) is listed as “does not stain naïve cells”. Further, the dissociation constant (Kd) in series [4] came to 1.2 nM. In [5], the EC50 came to 1.3 nM. Further, the “inhibition of allogeneic activation” value in series [6] is reported as 50-60%. Besides, the “histological findings (heart, muscle, testis and eye, H & E)” value in [7] (4 weekly doses at 50 mpk) is recorded as “no adverse histological findings”. Further, in series [7] (30 days, 4 weekly doses at 50 mpk), the in-life toxicity result is listed as “no significant in-life toxicity”. In series [7] (cynos, 50 mpk), the “RBC mass after dosing” value was “initial reduction of RBC mass after dosing this resolves after a short time” and the “tolerability of repeated dosing” value was “tolerate repeated dosing”. Also, the “lactate transport in human RBCs” value in series [8] was “unaffected”. Moreover, in [9], the “proliferation of CD4+ and CD8+ T cells” value was “inhibited the proliferation of CD4^+ and CD8^+ T cells”. Besides, the “metabolomics findings in treated T cells” value in series [10] was “improved generation of ATP and NADH, along with increased oxidative metabolism and viability”.
